The target in the experiment is Human EGFR JM-kinase construct (JM-A and JM-B, residues 645-998) (human). In words: static light scattering.

As for “Human EGFR JM-kinase construct (JM-A and JM-B, residues 645-998) (domain or fragment)”, the stoichiometry N (as a rule, a count of units in the complex or per binding partner) is 2.
